Results from the domain aggregation screens of Martell et al. (2025).

Assay: soluble fraction after stress (log2 fold change); higher = more stays soluble; pooled small domains, quantitative proteomics
Conditions: stress: 75 degC
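Note: 20 min heating vs room temperature control held 20 min.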

Row | Sequence | soluble fraction (log2)
1 | HMLSSREEKILNYLNEHQIITRKKAQELLETSQSTAGRVLKIMVDNGLIVQYGGSRSIWYELIK | -1.79
2 | HMLSTGIIIGDNVALRKTASSNGGIITRLDEGTVVKILASNVNAEWYQVEAGTKTGYVNRLYVNID | -1.07
3 | HMLSTGQLIRYYRKRAGMTQAELAEEVEMSEPGIRNYELGNRTPSKAQLSAIARGLGIEPEALI | -0.63
4 | HMLSVKEQTYQIIKEKILNQEYPAGARININELAEELGISNSPIREALSLLEQQGLVISNRSSGATVT | -0.176
5 | HMLSVLKNVDVNSLSDDKIKTYWQQIQKSGYTLDEVEVLAEAQGISPLKIAAFKRRVQSLQQSLQT | 0.311
6 | HMLSYDDTVVIGRNLLENAMKQKNIALEQLTDEVLARLAKELQVESVEAMYAGIGSGKRPSSFIINRLEAH | -0.75
7 | HMLSYFKIIKNGLVREGPASYYKIAENLEIGTIVQAFEKHDDWYLIKTHSGRIGWIVASDVTPQV | -3.62
8 | HMLTAHEAILKELRKMLLTGVLSPGEAVRPEIIGESFGVSAVPVREALRILEGEGQVLNRPHKGYVVT | -0.904
9 | HMLTANPEEVVNRLTSAGEVGVRPLLDVDDPINAISTLLAIREDVYKQFAQFDTVGKSPSEIAHEIDDFL | 0.11
10 | HMLTEERLQIITDTVNSRSSVTIAELSRILDVSPSTVKRDLNILAEAGKITKVRGGAIALGE | -0.285
11 | HMLTGDVDRYKDFFIALEKTSPVPIGFEKIIGGAHGYYHLEDKRIAIDEGMSELQTLKTAIHEIAHAKLHD | -0.312
12 | HMLTGNTAKLFAHLVEVMNPKEFVKINRQTVIVEAGIPRGSVGAAIAKLLETGHLIANASGAYKLT | 0.278
13 | HMLTIEEYLTQLKKLMKDRDAATVRDALSDAEEHLRNAMAGEDPSRLDGIIEEYGSPEEIAAAYKIMEEHT | -0.082
14 | HMLTIQNYFNQVKNIDWEQVPAALSKGHQLVEGASQNNWSAYHSNANIQRVVEAYFQKLNDYLEKN | -0.0425
15 | HMLTKGDRQSIRDSIIYMVGNAPRTLDYIVAESRYSEEDVIEAVRSLLSSHILSIDDSDMISLTRK | -1.02
16 | HMLTNNYKNDKALRFAKNHGIHESNILKLVSLYENAPEKGFNAQSIAELLGITPRSASRILVKLLQHNLIR | -1.8
17 | HMLTPSRVLPYLFEDSFFIDTLSLEKDQVVGFLEYIDERLPPQDLMNKSKEFELIDYLINESEAYLSQ | -0.00122
18 | HMLTQEEITRRRGEILTAAMGVILRKGFLETSMREIAEAAGVGKSTLYDYFPSKDEIMIAYVVD | -0.97
19 | HMLTRYNVNYYYNGEILQRRKVAEGSAAERITYLSGSLEVTDWYTEADLLRKYDFTEPVTGDLNLYAFARI | -1.42
20 | HMLTSAQLAEIRQAVRAGQASVVEDLLKNGASPNFRMENGDTGFTYAVRADTPQVAEALLKSGKL | -0.00532
21 | HMLTTIRKATVNDKTRIMEIYAYARQFMAEHGNPNQWKNNNPSEETIDNDIAKQEMYVIETDGEVHAVFY | -1.64
22 | HMLVDWNYLEGKRGVTTTPLTPSGKARFGDDVVNVLSDGVLVSTGTPVRVLQVLGNRVLVEPLDG | -0.21
23 | HMLVGRDPQALILGSMPSEKSLEEDEYYAHPRNRFWSLMNWLLAGNKTRPAYKTGIEILSSHGIALWV | -0.358
24 | HMLVIMKTGASEEEIGRVIERIEGEGLSAHVSRGTERTVIGVIGQGVDVHRIAGVLGGMSGVESLVPIS | 0.0604
25 | HMLVLAENMDVIFTRRTLDDHVVVDYKTTIGEMVKNDEIKGENMDELISAVEKDGYELVSSTSGEIIFLND | -1.01
26 | HMLVVEPSAELKTIIDKTASFVARNGPEFEARIKNEQNNAKFSFLQPNDPFNPYYRAKIVELGGTV | 0.0126

Row | Sequence | soluble fraction (log2)
27 | HMLVYQRLDKDNFIFEGKTLLNDIYKILDIESNYFEAIRGEADSIAGLLLEIAKSIPTINTEF | -0.362
28 | HMLYEDVQVPNVRYWKSRDAKKQLEDLGLRVLTEHVNDAYIQSDQVIRTSPEIGDTLRTGDTVTLYVSDG | 0.163
29 | HMMKLSKRQEQIIAVVKEHQPVSGERISDILAVSRATLRSDLSFLTLSGILKASPKVGYTYES | -3.4
30 | HMMLVKKMLNGIMMKEITIKELADQYDVSTRTIQLKIKKLGYEWDSKESIYRYVGKESEPLDVDFSTLI | -3
31 | HMMQEIKLEVINNEELRIDNYINLAGIGLSRSYIQKLIKDGVILVNGKEVKSSYKVSLGDIISVQIPDPG | -0.436
32 | HMMVIMRANATEPQIANVVAYVEKNGLNAHLSRGAERTVIGVVGDIRRVSKETFELMDGVDSVMRIS | -0.631
33 | HMNADKEALIAAAYRNSLIENFGTENVERYEERFNKWADKHDRQGMPMYPTIEKWMNEDNIA | 0.0631
34 | HMNADRIVGQTAKVIHPITPDEKGRVMVDNLDWAAAAQNRGESFEVGEEVSIVRIEGVTVYVQK | -0.234
35 | HMNADTVIGKAGTVIEKIDNVAATGAVKIDGKVWTARSERDNITIDEGTLVKAMAIEGVKLIVEPVT | 0.139
36 | HMNAEGLIGREAVALTAVDAHGGRVRLGGEEWSARLSKENGGVSRLSVGDPVRVTDIDGAIAVVAP | 0.118
37 | HMNAEQLAQVRRQKIGFIFQDFRLFPEYTVRDNILIPFYLDHRAPDEQMLHKLTGILGIAGKLHSRPAQL | -0.181
38 | HMNAKVVAPIPGTVLSIDIKVGDVIKIGDRLLVLEAMKMENNIASEKSGTVTAVHVKVGQQVLQNELMIEL | -2.17
39 | HMNALNDLESKIFEEVVKAPEIIMNMTIREFASTVHASPTTIVRMTHKLGFSGWNELKTYLQKQKHQIS | -1.72
40 | HMNALREVNTSILNVRSGAGTNYSKIGSLTQATRVSVISESNGWSKINYNGKVGYVSSQYLS | -1.53
41 | HMNAMKPVLTVSLGVHTDSLSRRLNEEGIIYRWQQAASEQLLLVDSESSSERIAELIHDWRLEQSSS | -0.0158
42 | HMNANTILNSQRILTQLGFNPGPIDGAFGAKTKGALNAFYTSIGKSYDGLLDSNELVELQKALDVSGLKN | -0.524
43 | HMNDADAHASVDAALKHLEALAETTPEVRAALELVRRGPDGRVTVDSFARVAEALREISIAVGAS | 0.024
44 | HMNDELMEQIDEWHKAEKHQEIIDALEQIPEAERDFETTGFLARAYNNIEEYAKAADLLESVRE | 0.0973
45 | HMNDGEIAAPVSGTLQSFKVEDGQTVSEGDLVAVMEAMKMETQILATKGGTIRLLVKEGDYLQAGHALMTI | -0.667
46 | HMNDGTIRVGTNVTIKPSAKRWATGQNIYYGVKGKTYKVIQMNGNRLLLDKVISWINKGDVYVPGS | -0.741
47 | HMNDIDRFIEALIEQDTLPGTNSRINEDVISEMKMMTSVEDIKAYAIATVGLTGGQVNNALINSGL | -0.072
48 | HMNDIVKIYTTHRIINIEGLAKNEPIMLYTINGTLIDKSVSSNGSAQLHVKGIGVYLVKWANNIVKVIVPN | -4.81
49 | HMNDLDSLWDIWENLNERGIGDKSEEGQELRDAIREFIDTNELNVRVTRNKTNEDLLTDIEDALEVAKNS | -0.588
50 | HMNDLIFSTLAEYDRDTITEIISVVDNTRGIGYEVELVRKDLIAMAAQAEARRDYLPSVIGDVEVFKRNLL | 0.354
51 | HMNDNQNKQMLWELLKDNRAFDNFDNKDYKTIIHLFNETVNTIDHRTPNLDLIKKNKIFIQDIMQKLSNL | -1.46
52 | HMNDSGIIGVVINDHEKYEGHVLEDGFISSSLSALSREIDVAGYFMMVKTVVYEGFFQELKGIGNV | 0.16

Row | Sequence | soluble fraction (log2)
53 | HMNDTNEEAVLSIILKNPQATQGAIAKEVGASLSTVKRIMRNLQKSGKLRREGTNRNGSWVVTGQK | -0.289
54 | HMNDTPPELRAALDLLGLKWPLASVELRARYKDLAKQHHPDATGGDKQAEERLKDINRAYSLLKHRLAKQ | -0.143
55 | HMNDTVGMNIRRLRKERGMTQGDLADKAGIQRETISKYESNKLTPPSYNLESIEKALKVPAGTLAQ | 0.176
56 | HMNDYIGVDRAKEIALNHARMNESDVQFAKAKLENDDGVVEYEIEFYFGRTEYDYTIDAVSGNIIEYDVEY | -1.86
57 | HMNEDDQLLKVLLAEPLRLEELYNLDLKPQGPYNLQTWIMVHLTELERDGLIARFPDGRYGPAR | -2.03
58 | HMNEFAYLIKISPEHNNNRYYRMVAEGDNFRIEMGRIGASPVQMKRPMYLWNETYQKKLQEGYTDRTSYTS | -1.85
59 | HMNEIDLEAAKRIALQNAGVESADAAFTKAQLDYDDGVAEYEIEFVAGSTKYEYEISAANGTVLKSSKESV | -0.0387
60 | HMNEIEIHINKLFGKISDSKRKQELMQEITQNLNEKVSDLVSQGQTREQAVKKAIEDFGDIDDLKDELDN | 0.312
61 | HMNEIYHQIKVDNVSDDDISLFQYSGIEFDHADYRRGEYIEFAISNRDLSILNNLGYEYQVVHH | -0.872
62 | HMNEKAALIFNEWSDFVSKDDEANAQIKFDELITLYKKTGYTKIALLEVATKQASNGDIEGALAKYSLLID | 0.128
63 | HMNEKTGTLTVYSSPGWAKVYIDGEYKGITPVMANLTYGDHYVKLTLDGYDSIGNHIDVNSPDQSYTGKF | -0.768
64 | HMNELIGVEQLQDLREAIADHGFAEQRVLNWLYQATKGQVSRLEQLPLPMLTTLHKKLGQWADAEAAASSA | 0.3
65 | HMNELVEATITTQTGRLDKVLTTIFPQYSRSQIQQLLEQGNILVNETLQKGKYKVKAGDKISLTEPAIKE | 0.331
66 | HMNEMSDTITRLLDAAETGIRLRGYHAVSFRDLAEELGIKSSSVHYYFRQKEDLGLAVVERY | 0.000622
67 | HMNENDPRVIKTRRLLLDSFVVLVRKKDFTSISVKDITDSAQVNRATFYAHFQDKYDILEYMVID | 0.0912
68 | HMNENNFIVAMRERLAQFIETSGTSQSRIAKELGVSKSTVSLFLGGTYGGNNQELARNLEQLLSMGAARR | -1.45
69 | HMNEPMITEVKRINYGSIKEIAKNLDVFKGKNGTVIIDERTNTLILTDLSENIEKMLWSIEITD | -0.927
70 | HMNERTKIPLRKIEIGQAVYVDTLEKVGTVIDIQGKQFKVDLAGLPITVAARNLFYPLPQEAKP | -0.736
71 | HMNESADMPDVVNMSLEAAKSQLEGMGLKVKVENVEDDSVEENHVIKTSPVSGEKVKLGTTVTLTVSKGR | -0.116
72 | HMNESEALIARIENLPPIEDLTEKHAEEVKALMTVYSKLKMSDRILVTNYGVLKKDFDALVKKGFLTNED | -0.321
73 | HMNETHANKVYNFLKKKKKPLSAYEILKELASEGISAPTTIYRALNKLVSNGLIHKIESLNAWTV | 0.251
74 | HMNETLKQIRINALQYSEKDMATKLGLPLSEYKEIENDKPLNFTLLIRLSQAVGKTIDDLLNAQ | -0.95
75 | HMNEVETWSVQADGATGRIDKWLAEQNEWSRSQVQEWLKAGRVEVDGRVVKPNYKLSGTESIAVHIPEAV | -0.244
76 | HMNEWVSVEERLPTDERPVLAFIGYADTMNGFITTSYYFRFDPDPHWLGEGLIPVGLKTLFWMPLPAP | 0.277
